Results published in patent US5972599, “High affinity nucleic acid ligands of cytokines” (NeXstar Pharmaceuticals, Inc.).
Positions count from the first letter of the chain named.

B1: TNF 7C (ssRNA)
RNA: GGGAGCUCAGAAUAAACGCUCAACAGGUGGCACCGCCCUUCCAACACGGUGCGUUCGACAUGAGGCCCGGAUCCGGC
B2: TNF 9C (ssRNA)
RNA: GGGAGCUCAGAAUAAACGCUCAAAUGGUGGAGGCCAUCUCAAACCCACGACACUUCGACAUGAGGCCCGGAUCCGGC
B3: TNF 11C (ssRNA)
RNA: GGGAGCUCAGAAUAAACGCUCAAUGAGGCGCGCCACAGGAUGGCCCUCAACCCUUCGACAUGAGGCCCGGAUCCGGC
B4: TNF 19C (ssRNA)
RNA: GGGAGCUCAGAAUAAACGCUCAAUGUCGAUCGUGUCAAGGUCCGUCCUACUUCUUCGACAUGAGGCCCGGAUCCGGC
B5: TNF 15C (ssRNA)
RNA: GGGAGCUCAGAAUAAACGCUCAACUAGUUCAACCGUCCCUUCUAACAACCGUCUUCGACAUGAGGCCCGGAUCCGGC
B6: TNF 3A (ssRNA)
RNA: GGGAGCUCAGAAUAAACGCUCAAGAUCGACGCAUCGAGUCGCCUCAUCGCUCCUUCGACAUGAGGCCCGGAUCCGGC
B7: IL-4 2'F/NH2-41 (ssRNA)
RNA: GGGAGACAAGAAUAAACGCUCAAAGUAACGUGGGGAGCCACACGUAAUACGGCACUAAUUCGACAGGAGGCUCACAACAGGC
modifications: 2'-F C, 2'-NH2 U
B8: IL-4 2'F/NH2-8 (ssRNA)
RNA: GGGAGACAAGAAUAAACGCUCAAGUCGGAGCGAUGGAGAGCCACGAUAUACGGUCUGUGCGCUUCGACAGGAGGCUCACAACAGGC
modifications: 2'-F C, 2'-NH2 U
B9: IL-4 2'NH2-22 (ssRNA)
RNA: GGGAGACAAGAAUAAACGCUCAACAGAUGGUAUCUAGUGGAGAGCCACAUCAACGGCGCAGAUUCGACAGGAGGCUCACAACAGGC
modifications: 2'-NH2 C and U
B10: IL-4 2'NH2-12 (ssRNA)
RNA: GGGAGACAAGAAUAAACGCUCAAGGACUGGUGAGCCACGUAUACGGUCUUAGGGGCUUGGGCGUUCGACAGGAGGCUCACAACAGGC
modifications: 2'-NH2 C and U
B11: IL-4 2'NH2-31 (ssRNA)
RNA: B10 RNA with G25U, A26G, U40C, G60A
modifications: 2'-NH2 C and U
B12: IL-4 2'NH2-B31 (ssRNA)
RNA: B10 RNA with G25A, A26G
modifications: 2'-NH2 C and U
B13: IL-4 2'NH2-B14 (ssRNA)
RNA: GGGAGACAAGAAUAAACGCUCAAUAAAUGGAGAGCCACACUAACGGCGUAUGAAAACACUCAUUCGACAGGAGGCUCACAACAGGC
modifications: 2'-NH2 C and U
B14: IL-4 2'NH2-B18 (ssRNA)
RNA: GGGAGACAAGAAUAAACGCUCAACGAUGGAGCGCCACAUCGCUAUAACGGCAUUUAACAAAAUUUCGACAGGAGGCUCACAACAGGC
modifications: 2'-NH2 C and U
B15: IL-4 2'NH2-B29 (ssRNA)
RNA: GGGAGACAAGAAUAAACGCUCAAUGACUGAACGAUGGUAUUGGAGAGCCACAUCAACGGCAAUUUCGACAGGAGGCUCACAACAGGC
modifications: 2'-NH2 C and U
B16: IL-4 2'NH2-B26 (ssRNA)
RNA: GGGAGACAAGAAUAAACGCUCAAAUGGAGAGCCACAUUAACGGCAGCAUAUCACAGUAGGAAUUCGACAGGAGGCUCACAACAGGC
modifications: 2'-NH2 C and U
B17: IL-4 2'NH2-B5 (ssRNA)
RNA: GGGAGACAAGAAUAAACGCUCAACGAUAGUAUACACAUGAUGAUGGGGAGCCACGUGUACGGCUUCGACAGGAGGCUCACAACAGGC
modifications: 2'-NH2 C and U
B18: IL-4 2'NH2-17 (ssRNA)
RNA: GGGAGACAAGAAUAAACGCUCAAGUAUUGGGGAGCCACAUUACAACGGCACAGGCAACCAGGGUUCGACAGGAGGCUCACAACAGGC
modifications: 2'-NH2 C and U
B19: IL-4 2'NH2-B16 (ssRNA)
RNA: GGGAGACAAGAAUAAACGCUCAAUCACAAGCACCCUUGGGGAGCCACAUUAACGGCCUAGGCUUCGACAGGAGGCUCACAACAGGC
modifications: 2'-NH2 C and U
B20: IL-4 2'F/NH2-13 (ssRNA)
RNA: GGGAGACAAGAAUAAACGCUCAACUCGGGAGCCAGAGUAACAACGGCACUAUAUAAUUUUACUUCGACAGGAGGCUCACAACAGGC
modifications: 2'-F C, 2'-NH2 U
B21: IL-4 2'F/NH2-19 (ssRNA)
RNA: GGGAGACAAGAAUAAACGCUCAAGUCUUCCAUGGGGAGCCACAUUAACGGCGCAAUACUGAACUUCGACAGGAGGCUCACAACAGGC
modifications: 2'-F C, 2'-NH2 U
B22: IL-4 2'NH2-B8 (ssRNA)
RNA: GGGAGACAAGAAUAAACGCUCAAUGUGGGGAGCCACAGUUAACGGCUUCAACUGAUUAGAAUUCGACAGGAGGCUCACAACAGGC
modifications: 2'-NH2 C and U
B23: IL-4 2'NH2-B24 (ssRNA)
RNA: GGGAGACAAGAAUAAACGCUCAAAGAUUUAAAGUAUUUGGGGAGCCACAUCAACGGCAUUGUGUUCGACAGGAGGCUCACAACAGGC
modifications: 2'-NH2 C and U
B24: IL-4 2'NH2-27 (ssRNA)
RNA: GGGAGACAAGAAUAAACGCUCAACCUUGUGGGGAGCCACGUAUACGGCCAUAGCAUACCGCAAUUCGACAGGAGGCUCACAACAGGC
modifications: 2'-NH2 C and U
B25: IL-4 2'F/NH2-25 (ssRNA)
RNA: GGGAGACAAGAAUAAACGCUCAAAGAGCCGUUUUGGGGACCCACAGUAACGGGUUUAUGGUAUUCGACAGGAGGCUCACAACAGGC
modifications: 2'-F C, 2'-NH2 U
B26: IL-10 ligand 55 (ssRNA)
RNA: GGGAGACAAGAAUAAACGCUCAAACAUCGUAUAAUCUCUAAGAGCCUGGAUAUACGAUGAAUUCGACAGGAGGCUCACAACAGGC
modifications: 2'-F C and U
B27: IL-10 ligand 56 (ssRNA)
RNA: GGGAGACAAGAAUAAACGCUCAAUCUCUAAGAGCCUGGAUGUCGAGGGGCCAUUUCGCACGCUUCGACAGGAGGCUCACAACAGGC
modifications: 2'-F C and U
B28: IL-10 ligand 3 (ssRNA)
RNA: GGGAGACAAGAAUAAACGCUCAACUGAGAUCUCUAAGAGCCUGGACUCAGCUACGAUUGAGCGUUUAUUCUUGUUCGACAGGAGGCUCACAACAGGC
modifications: 2'-F C and U
B29: IL-10 ligand 54 (ssRNA)
RNA: GGGAGACAAGAAUAAACGCUCAAAUCCCAAUCUCUAAGAGCCUGGAUGACAAUCGCAUUGGGCUUCGACAGGAGGCUCACAACAGGC
modifications: 2'-F C and U
B30: IL-10 ligand 15 (ssRNA)
RNA: GGGAGACAAGAAUAAACGCUCAAUCUCUAUGAGCCUGGAUCGACGAACUCUCUACGGGCUGUGUUCGACAGGAGGCUCACAACAGGC
modifications: 2'-F C and U
B31: IL-10 ligand 6 (ssRNA)
RNA: GGGAGACAAGAAUAAACGCUCAAAUCCCAAUCUCUAAGAGCCUGGAUAAGAAUGCGCAUUGGGCUUCGACAGGAGGCUCACAACAGGC
modifications: 2'-F C and U
B32: IL-10 ligand 57 (ssRNA)
RNA: B31 RNA with A48G
modifications: 2'-F C and U
B33: IL-10 ligand 34 (ssRNA)
RNA: GGGAGACAAGAAUAAACGCUCAACUGAGAUCUCUAAGAGCCUGGACUCAGCUCCGAUUGAUCCUUCGACAGGAGGCUCACAACAGGC
modifications: 2'-F C and U
B34: IL-10 ligand 41 (ssRNA)
RNA: B33 RNA with U61A
modifications: 2'-F C and U
B35: IL-10 ligand 2 (ssRNA)
RNA: GGGAGACAAGAAUAAACGCUCAAAUCUCUACUGAGCCUGGAUUCGCCAGAAGUUUUAUCACAGUUUCGACAGGAGGCUCACAACAGGC
modifications: 2'-F C and U
B36: IL-10 ligand 68 (ssRNA)
RNA: GGGAGACAAGAAUAAACGCUCAAACAUCGUAUAAUCUCUCUAAGAGCCUGGAAUACGAUGAAUUCGACAGGAGGCUCACAACAGGC
modifications: 2'-F C and U
B37: IL-10 ligand 64 (ssRNA)
RNA: GGGAGACAAGAAUAAACGCUCAAACAUCGUAUAACUCUAAGCGCCUGGAUAUACGAUGAAUUCGACAGGAGGCUCACAACAGGC
modifications: 2'-F C and U
B38: IL-10 ligand 64b (ssRNA)
RNA: B37 RNA with C42U
modifications: 2'-F C and U
B39: IL-10 ligand 64a (ssRNA)
RNA: B37 RNA with C42A
modifications: 2'-F C and U
B40: IL-10 ligand 59 (ssRNA)
RNA: GGGAGACAAGAAUAAACGCUCAACGUAAAAGUUAUCGAAUCUCUGUGAGCCUGGAUCGAUUACUUCGACAGGAGGCUCACAACAGGC
modifications: 2'-F C and U
B41: IL-10 ligand 10 (ssRNA)
RNA: GGGAGACAAGAAUAAACGCUCAACUGAGAUCUCUAAGAGCCUGGACUCAGCUCCGACUGACCUUCGACAGGAGGCUCACAACAGGC
modifications: 2'-F C and U

biological target: TNF-alpha (Homo sapiens, UniProt P01375 P01375:77-233); experiment: filter; class I; details: tags: Genzyme or R&D Systems; chain copies: 3 inferred
Sequence (P01375 77-233, one chain of several): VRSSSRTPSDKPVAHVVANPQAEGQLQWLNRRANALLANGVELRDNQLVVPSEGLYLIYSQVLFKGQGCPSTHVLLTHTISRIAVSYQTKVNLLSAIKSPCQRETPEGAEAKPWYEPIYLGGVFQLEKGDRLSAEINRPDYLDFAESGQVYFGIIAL

Row | Binder | Kd [nM]
1 | B1 | 297
2 | B2 | 120
3 | B3 | 140
4 | B4 | 83
5 | B5 | 124
6 | B6 | 135

biological target: IL-4 (Homo sapiens, UniProt P05112 P05112:25-153); experiment: filter; group 1 stated to bind IL-4; details: tags: R&D Systems
Sequence (P05112 25-153, one chain of several): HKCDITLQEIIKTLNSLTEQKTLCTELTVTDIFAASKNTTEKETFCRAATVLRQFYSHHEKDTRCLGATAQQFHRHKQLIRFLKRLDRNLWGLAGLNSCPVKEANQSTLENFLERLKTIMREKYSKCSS

Row | Binder | binding result
7 | B7 | binds
8 | B8 | binds
9 | B9 | binds
10 | B10 | binds
11 | B11 | binds
12 | B12 | binds
13 | B13 | binds
14 | B14 | binds
15 | B15 | binds
16 | B16 | binds
17 | B17 | binds
18 | B18 | binds
19 | B19 | binds
20 | B20 | binds
21 | B21 | binds
22 | B22 | binds
23 | B23 | binds
24 | B24 | binds
25 | B25 | binds

biological target: IL-10 (Homo sapiens, UniProt P22301 P22301:19-178); experiment: filter; group statement, at 250 nM IL-10; details: tags: Bachem or R&D Systems; chain copies: 2
Sequence (P22301 19-178, one chain of several): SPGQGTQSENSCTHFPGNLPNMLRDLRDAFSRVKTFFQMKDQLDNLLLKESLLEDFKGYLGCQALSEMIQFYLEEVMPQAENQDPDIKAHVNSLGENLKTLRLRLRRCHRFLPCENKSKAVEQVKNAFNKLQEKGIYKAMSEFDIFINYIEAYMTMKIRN

Row | Binder | binding result
26 | B26 | binds
27 | B27 | binds
28 | B28 | binds
29 | B29 | binds
30 | B30 | binds
31 | B31 | binds
32 | B32 | binds
33 | B33 | binds
34 | B34 | binds
35 | B35 | binds
36 | B36 | binds
37 | B37 | binds
38 | B38 | binds
39 | B39 | binds
40 | B40 | binds
41 | B41 | binds
